B1: ZNF263 (parent)
chain: FAHSSNLLRHQRIHTGERPYKCPE

Variants of: B1
Assay: protein stability index of a GFP-peptide fusion (GPS, HEK-293T) (PSI 1-6); higher = more stable
Details: c terminus: a fixed tail appended
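Also: lentivirally expressed fusions sorted by FACS into six bins by GFP to DsRed ratio, PSI derived from sequencing read proportions per bin multiplied by bin number.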

Going from FAHSSNLLRHQRIHTGVRPYKCPE [E17V] to FAHSSNLLRHQRIHTGWRPYKCPE [E17W], the protein stability index falls from 2.44 to 2.16.

Going from FAHSSNLLRHQRIHTGYRPYKCPE [E17Y] to FAHSSNLLRHQRIHTGEAPYKCPE [R18A], the protein stability index rises from 1.47 to 2.68.

Compared with FAHSSNLLRHQRIHTGECPYKCPE [R18C], FAHSSNLLRHQRIHTGEDPYKCPE [R18D] is higher in protein stability index: 2.23 for the first, 3.28 for the second.

Compared with FAHSSNLLRHQRIHTGEEPYKCPE [R18E], FAHSSNLLRHQRIHTGEFPYKCPE [R18F] is lower in protein stability index: 3.36 for the first, 2.16 for the second.

Compared with FAHSSNLLRHQRIHTGEGPYKCPE [R18G], FAHSSNLLRHQRIHTGEHPYKCPE [R18H] is lower in protein stability index: 2.54 for the first, 2.52 for the second.

Compared with FAHSSNLLRHQRIHTGEIPYKCPE [R18I], FAHSSNLLRHQRIHTGEKPYKCPE [R18K] is lower in protein stability index: 2.21 for the first, 2.09 for the second.

Compared with FAHSSNLLRHQRIHTGELPYKCPE [R18L], FAHSSNLLRHQRIHTGEMPYKCPE [R18M] is lower in protein stability index: 2.39 for the first, 2.2 for the second.

FAHSSNLLRHQRIHTGENPYKCPE [R18N] and FAHSSNLLRHQRIHTGEPPYKCPE [R18P] are the same in protein stability index: 2.45 for the first, 2.45 for the second.

Compared with FAHSSNLLRHQRIHTGEQPYKCPE [R18Q], FAHSSNLLRHQRIHTGESPYKCPE [R18S] is lower in protein stability index: 2.36 for the first, 2.35 for the second.

Compared with FAHSSNLLRHQRIHTGETPYKCPE [R18T], FAHSSNLLRHQRIHTGEVPYKCPE [R18V] is higher in protein stability index: 2.27 for the first, 2.46 for the second.

First: FAHSSNLLRHQRIHTGEWPYKCPE [R18W]
Second: FAHSSNLLRHQRIHTGEYPYKCPE [R18Y]
The protein stability index of the first is higher: 2.66 for the first, 1.86 for the second.

First: FAHSSNLLRHQRIHTGERAYKCPE [P19A]
Second: FAHSSNLLRHQRIHTGERCYKCPE [P19C]
The protein stability index of the first is higher: 2.54 for the first, 2.48 for the second.

First: FAHSSNLLRHQRIHTGERDYKCPE [P19D]
Second: FAHSSNLLRHQRIHTGEREYKCPE [P19E]
The protein stability index of the first is higher: 3.71 for the first, 3.67 for the second.

Compared with FAHSSNLLRHQRIHTGERFYKCPE [P19F], FAHSSNLLRHQRIHTGERGYKCPE [P19G] is lower in protein stability index: 2.74 for the first, 2.59 for the second.

Going from FAHSSNLLRHQRIHTGERHYKCPE [P19H] to FAHSSNLLRHQRIHTGERIYKCPE [P19I], the protein stability index falls from 2.89 to 2.38.

First: FAHSSNLLRHQRIHTGERKYKCPE [P19K]
Second: FAHSSNLLRHQRIHTGERLYKCPE [P19L]
The protein stability index of the first is higher: 3.02 for the first, 2.65 for the second.

Compared with FAHSSNLLRHQRIHTGERMYKCPE [P19M], FAHSSNLLRHQRIHTGERNYKCPE [P19N] is lower in protein stability index: 3.05 for the first, 2.75 for the second.

Going from FAHSSNLLRHQRIHTGERQYKCPE [P19Q] to FAHSSNLLRHQRIHTGERRYKCPE [P19R], the protein stability index falls from 3.17 to 2.9.

Compared with FAHSSNLLRHQRIHTGERSYKCPE [P19S], FAHSSNLLRHQRIHTGERTYKCPE [P19T] is higher in protein stability index: 2.69 for the first, 3.02 for the second.

First: FAHSSNLLRHQRIHTGERVYKCPE [P19V]
Second: FAHSSNLLRHQRIHTGERWYKCPE [P19W]
The protein stability index of the first is higher: 2.67 for the first, 1.83 for the second.

Compared with FAHSSNLLRHQRIHTGERYYKCPE [P19Y], FAHSSNLLRHQRIHTGERPAKCPE [Y20A] is higher in protein stability index: 2.58 for the first, 3.51 for the second.

Going from FAHSSNLLRHQRIHTGERPCKCPE [Y20C] to FAHSSNLLRHQRIHTGERPDKCPE [Y20D], the protein stability index rises from 2.37 to 3.46.

Going from FAHSSNLLRHQRIHTGERPEKCPE [Y20E] to FAHSSNLLRHQRIHTGERPFKCPE [Y20F], the protein stability index falls from 3.68 to 2.77.

First: FAHSSNLLRHQRIHTGERPGKCPE [Y20G]
Second: FAHSSNLLRHQRIHTGERPHKCPE [Y20H]
The protein stability index of the first is higher: 3.32 for the first, 3.23 for the second.

Going from FAHSSNLLRHQRIHTGERPIKCPE [Y20I] to FAHSSNLLRHQRIHTGERPKKCPE [Y20K], the protein stability index rises from 2.63 to 3.43.

Going from FAHSSNLLRHQRIHTGERPLKCPE [Y20L] to FAHSSNLLRHQRIHTGERPMKCPE [Y20M], the protein stability index falls from 2.81 to 2.72.

First: FAHSSNLLRHQRIHTGERPNKCPE [Y20N]
Second: FAHSSNLLRHQRIHTGERPPKCPE [Y20P]
The protein stability index of the first is higher: 3.29 for the first, 3.02 for the second.

Compared with FAHSSNLLRHQRIHTGERPQKCPE [Y20Q], FAHSSNLLRHQRIHTGERPRKCPE [Y20R] is lower in protein stability index: 3.48 for the first, 2.91 for the second.

Going from FAHSSNLLRHQRIHTGERPSKCPE [Y20S] to FAHSSNLLRHQRIHTGERPTKCPE [Y20T], the protein stability index rises from 3.31 to 3.38.

Compared with FAHSSNLLRHQRIHTGERPVKCPE [Y20V], FAHSSNLLRHQRIHTGERPWKCPE [Y20W] is lower in protein stability index: 3.48 for the first, 2.75 for the second.

Compared with FAHSSNLLRHQRIHTGERPYACPE [K21A], FAHSSNLLRHQRIHTGERPYCCPE [K21C] is higher in protein stability index: 2.41 for the first, 2.56 for the second.

Going from FAHSSNLLRHQRIHTGERPYDCPE [K21D] to FAHSSNLLRHQRIHTGERPYECPE [K21E], the protein stability index rises from 2.62 to 2.79.

First: FAHSSNLLRHQRIHTGERPYFCPE [K21F]
Second: FAHSSNLLRHQRIHTGERPYGCPE [K21G]
The protein stability index of the first is higher: 2.56 for the first, 2.21 for the second.

Going from FAHSSNLLRHQRIHTGERPYHCPE [K21H] to FAHSSNLLRHQRIHTGERPYICPE [K21I], the protein stability index rises from 2.49 to 2.6.

Compared with FAHSSNLLRHQRIHTGERPYLCPE [K21L], FAHSSNLLRHQRIHTGERPYMCPE [K21M] is lower in protein stability index: 2.4 for the first, 2.07 for the second.

Compared with FAHSSNLLRHQRIHTGERPYNCPE [K21N], FAHSSNLLRHQRIHTGERPYPCPE [K21P] is lower in protein stability index: 3.13 for the first, 2.51 for the second.

First: FAHSSNLLRHQRIHTGERPYQCPE [K21Q]
Second: FAHSSNLLRHQRIHTGERPYRCPE [K21R]
The protein stability index of the first is higher: 2.3 for the first, 1.97 for the second.

First: FAHSSNLLRHQRIHTGERPYSCPE [K21S]
Second: FAHSSNLLRHQRIHTGERPYTCPE [K21T]
The protein stability index of the first is lower: 2.29 for the first, 2.83 for the second.

First: FAHSSNLLRHQRIHTGERPYVCPE [K21V]
Second: FAHSSNLLRHQRIHTGERPYWCPE [K21W]
The protein stability index of the first is higher: 2.65 for the first, 2.64 for the second.

Compared with FAHSSNLLRHQRIHTGERPYYCPE [K21Y], FAHSSNLLRHQRIHTGERPYKAPE [C22A] is higher in protein stability index: 2.81 for the first, 3.1 for the second.

Compared with FAHSSNLLRHQRIHTGERPYKDPE [C22D], FAHSSNLLRHQRIHTGERPYKEPE [C22E] is lower in protein stability index: 3.74 for the first, 3.37 for the second.

Compared with FAHSSNLLRHQRIHTGERPYKFPE [C22F], FAHSSNLLRHQRIHTGERPYKGPE [C22G] is higher in protein stability index: 2.08 for the first, 2.36 for the second.

Going from FAHSSNLLRHQRIHTGERPYKHPE [C22H] to FAHSSNLLRHQRIHTGERPYKIPE [C22I], the protein stability index falls from 2.8 to 2.06.

Compared with FAHSSNLLRHQRIHTGERPYKKPE [C22K], FAHSSNLLRHQRIHTGERPYKLPE [C22L] is higher in protein stability index: 2.15 for the first, 2.25 for the second.

Compared with FAHSSNLLRHQRIHTGERPYKMPE [C22M], FAHSSNLLRHQRIHTGERPYKNPE [C22N] is higher in protein stability index: 2.26 for the first, 2.95 for the second.

Compared with FAHSSNLLRHQRIHTGERPYKPPE [C22P], FAHSSNLLRHQRIHTGERPYKQPE [C22Q] is higher in protein stability index: 2.58 for the first, 2.9 for the second.

Compared with FAHSSNLLRHQRIHTGERPYKRPE [C22R], FAHSSNLLRHQRIHTGERPYKSPE [C22S] is higher in protein stability index: 2.29 for the first, 3.48 for the second.

Reference: the supplement of paper PMC10567573
